According to patent publication US20210179728A1:
pKd: −log10 of the molar value. Where “and” joins values, the source holds several entries; their conditions need not be identical. Equal values may be shown once.

How the values were obtained:
[1] = target: SIRPg on human CD3+ T cells (human) (UniProt Q9P1W8); assay: flow cytometry on peripheral human CD3+ T cells; Exp 1 HV2 [B, table B]
[2] = target: recombinant hSIRPa (Sino Biologicals, reference 11612-H08H) (human) (UniProt P78324); assay: SPR (Biacore); SIRPa-His immobilized on CM5 chip, antibody injected
[3] = target: SIRPg on human CD3+ T cells (human) (UniProt Q9P1W8); assay: flow cytometry on peripheral human CD3+ T cells; Exp 1 HV1 [B, table B]
[4] = target: SIRPa on human monocytes (human) (UniProt P78324); assay: flow cytometry on human monocytes v1/v1, PE anti-human Fc; MFI [B, panel B table]
[5] = target: SIRPa on human monocytes (human) (UniProt P78324); assay: flow cytometry on human monocytes v1/v1, PE anti-human Fc; percent of stained monocytes [B, panel A table]
[6] = target: recombinant hSIRPa (Sino Biologicals, reference 10975-H08H) (human) (UniProt P78324); assay: ELISA on immobilized recombinant hSIRPa, anti-mouse Fc detection; given as ED50
[7] = target: CD47 on human T cells, red blood cells and platelets (human) (UniProt Q08722); assay: flow cytometry on peripheral human CD3+ T cells; Exp 1 HV1 [B, table B]
[8] = target: CD47 on human T cells, red blood cells and platelets (human) (UniProt Q08722); assay: flow cytometry on peripheral human CD3+ T cells; Exp 1 HV2 [B, table B]

Sequence of SIRPg on human CD3+ T cells (human) (Q9P1W8 29-387): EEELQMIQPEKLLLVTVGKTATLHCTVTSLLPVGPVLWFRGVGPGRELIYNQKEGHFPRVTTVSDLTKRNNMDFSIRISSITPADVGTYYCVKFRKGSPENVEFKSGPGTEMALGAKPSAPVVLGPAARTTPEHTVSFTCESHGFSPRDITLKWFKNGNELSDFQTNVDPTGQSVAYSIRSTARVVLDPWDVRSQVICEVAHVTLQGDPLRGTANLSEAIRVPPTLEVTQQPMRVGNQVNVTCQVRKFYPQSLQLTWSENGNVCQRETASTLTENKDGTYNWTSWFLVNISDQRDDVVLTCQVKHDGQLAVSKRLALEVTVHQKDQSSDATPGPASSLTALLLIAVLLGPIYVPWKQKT

For Mouse isotype Ctrl (antibody), the % of positive T-cells [1] was 0.016%.

In the case of SE7C2 (antibody), the pKd [2] was 5.78, the koff [2] was 0.01 s⁻¹ and the kon [2] was 5980 M⁻¹ s⁻¹.

Ctrl Ab II (antibody) gave a % of positive T-cells [3] of 0.45% and a % of positive T-cells [1] of 1.12%.

Substance Kwar23 (antibody) has an EC50 [4] of 0.378 µg/mL and an EC50 [5] of 0.26 µg/mL.

LSB2.20 (antibody) gave a % of positive T-cells [3] of 91.4% and a % of positive T-cells [1] of 98.4%.

Substance SE5A5 (antibody) has a pKd [2] of 7.41, a koff [2] of 0.000949 s⁻¹ and a kon [2] of 24500 M⁻¹ s⁻¹. For the same substance, the % of positive T-cells [3] was 3.72%, the % of positive T-cells [1] was 7.69% and the EC50 [6] was 0.16 nM and 0.024 µg/mL.

SIRPa-fc (Fc fusion) showed a % of positive T-cells [7] of 72.2% and a % of positive T-cells [8] of 80.1%.
